This note sets out measurements from the nanobody polyreactivity screen of Harvey et al. (2022).

A short description of the data set: yeast display, Sf9 membrane polyspecificity reagent, FACS + sequencing; frameworks hold sequencing errors. Put shortly:
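Synthetic nanobody libraries on Saccharomyces cerevisiae BJ5465 were galactose-induced for 36–48 hours, stained 1 hour at 4 °C with 10% biotinylated, detergent-solubilized Sf9 membrane reagent and enriched on streptavidin microbeads. FACS then separated cells into low and high (top ~1%) gates by anti-HA (expression) and streptavidin (reagent binding) fluorescence. Genes were colony-PCR amplified, MiSeq 2 × 250 sequenced and CDR-length filtered. A clone's polyreactivity label is that of its gate of origin.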
As for “QVQLVESGGGLVQAGGSLRLSCAASGRIFGKNAMGWYRQAPGKERELVAAISANGGSTSYADSVKGRFTISRDNAKNTVYLQMNSLKPEDTAVYYCNVRRQLRGDYWGHGTQVTVSS”, the “polyreactivity (PSR sort gate)” value is reported as “high polyreactivity”. As to “QVQLVESGGGLVQAGGSLRLSCAASGSTFNSNAMGWYRQAPGKERELVAAISYSGGRTYYADSVKGRFTISRDNAKNTVYLQMNSLKPEDTAVYYCAKSPNHYIHFDYWGQGTQVTVSS”, the “polyreactivity (PSR sort gate)” value is on record as “low polyreactivity”. Take “QVQLVESGGGLVQAGGSLRLSCAASGSIFQYNTMGWYRQAPGKERELVAAINWSGVSTYYADSVKGRFTISRDNAKNTVYLQMNILKPEDTAVYYCNARRYVDGSYIYDRGYWGQGTQVTVSS”: the “polyreactivity (PSR sort gate)” value is “high polyreactivity”.

“QVQLVESGGGLVQAGGSLRLSCAASGSIFFYAMGWYRQARGKERELVADITYTGGSKYADSVKGRFTISRDNAKNTVYLQMNSLKPEDTAVYYCAKLDGGLFDYWGQGTQVTVSS”: the “polyreactivity (PSR sort gate)” value is listed as “low polyreactivity”. Under “QVQIVESGGGLVQAGGSLRLSCAASGSIFSVYAMGWYRQAPGKERELVAGINRRTGITYYADSVKGRFTISRDNAKNTVYLQMNSLKPEDTAVYYCAADPYVKYNYWGQGTQVTVSS” stands “low polyreactivity”.

As for “QVQLVESGGGLVQAGGSLRLSCAASGSTFTPYAMGWYRQAPGKERELVAAISRRGGSTSYADSVKGRFTISRDNAKNTVYLQMNSLKPEDTAVYYCNKKTAASDYDYWGQGTQVTVSS”, the “polyreactivity (PSR sort gate)” value is given as “high polyreactivity”.

On to “QVQLVESGGGLVQAGGSLRLSCAASGSTFYHNVMGWYRQAPGKERELVASIDTGDSTNYADSVKGRFTISRDNAKNTVYLQMNSLITEHTAVYYCNADSYPALNKRGYEYWGQGTQVTVSS”, for which the “polyreactivity (PSR sort gate)” value is reported as “low polyreactivity”. With “QVQLVESGGGLVQAGGSLRLSCAASGRIFGHYAMGWYRQAPGKERELVAAISQSGTNTYYADSVKGRFTISRDNAKNTVYLQMNSLKPEDTAVYYCAAKPPRRYQLMDYWGQGTKVTVSS”, the “polyreactivity (PSR sort gate)” value was “high polyreactivity”.

For “QVQLVESGGGLVQAGGTLRLSCAASGSTFGGYAMGLYRQAPGKERELVAAITWSGDTYYADSVKGRFTISRDNAKNSVYLQMNSLKPEDTAVYYCAAYSRVGPYRYAYWGQGTQVTVSS”, the “polyreactivity (PSR sort gate)” value was “high polyreactivity”. For “QVQLVESGGGLVQAGGSLRLSCAASGRNIVGYAMGWYIQAPGKERELVAAITKSGGRTYYADSVKGRFTISRDNAKNTVYLQMNSLKPEDTAVYYCAVLNSKWNEYDYWGQGTQVTVSS” the value was “high polyreactivity”; for “QVQLVESGGGLVQAGGSLRLSCAASGRTFWYYTMGWYRQAPGKERELVAAITRRGGSTYYADSVKGRFTISRDNAKNTVYLQMNSLKPEDTAVYYCARGGSRLTQGWLVTPYDYDYWGQGTQVTVSS”, “high polyreactivity”.

As for “QVHLVESGGGIVQAGGSLRLSCAASGIIFHWYAMGWYRQAPGKERELVAAITQSGGSTSYADSVKGRFTISRDNAKNTVYLQMNSLKPEDTAVYNCSKDYAYTLWENYYAFNYWGQGTQVTVSS”, the “polyreactivity (PSR sort gate)” value is reported as “low polyreactivity”. Consider “QVQLVESGGGLVQAGGSLRLSCAASGSTFWSYAIGWYRQAPGKERELVATISAGGGSTSYADSVKGRFTISRDNAKNTVYLQMNSLKPEDTAVYYCATGYSDSSRYGGYYKFDYWGQGTQVTVSS”, for which the “polyreactivity (PSR sort gate)” value is “low polyreactivity”. In the case of “QVQLVESGGGLVQAGGSLRLSCAASGSIFIIYAMGRYRQAPGKERELVAAIRGRGGSTYYADSVKGRFTISRDKAKNTVYLEMNSLNPEDSAVYYCAASVDRGYNYWGEGTQVTVSS”, the “polyreactivity (PSR sort gate)” value is given as “high polyreactivity”. For “QVQLVESGGGVVQAGGSLRVSCAATGSIYYRSAMGWYRQAPGKERELVAAISVSGGSTYYADSVKGRFTISRDNAKITDYLQMNSLKPEDTAVYYCAAVVRYGYEYWGQGTQVTVSS” the value was “high polyreactivity”; for “QVQLVESGGGLVQAGGSLRLSCAASGLRFNVYAMGWYRQAPGKERELVAAITSGGSTHYADSVKGRFTISRDNAKNTVYLQMNSLKPEDTAVYYCNKELATARGQSLYRTYSGYGYRGQGTQVTVSS”, “high polyreactivity”; for “QVQLVESGGGLVQAGGSLRLSCAASGLIFRYYAMGWYRQAPGKERELVAVISRRGDSTYYADSVKGRFTISRDNAKNTVYLQMNSLKPEDTAVYYCAAQAFVSYFKFRGGYWGQGTQVTVSS”, “high polyreactivity”. For “QVQLVESGGGLVQAGCSLRLSCSASGSIFYSYAMGWYRQAPGKERELVAAITSVVSTNYADSVKGRFTISRDYAKNTVYLQMNRLKTEDTAVYYCAAGYLRLYYVCLDDSYGYDYWGQGTQVTVSS” the value was “low polyreactivity”. Under “QVQRVESGGGLVQAGGSLRLSCAASGSTFNRNALGWYRPEPGKERELVAAISWRGDSTSYADSVKGRFTITRDNAKNTVYLQMNSLKPEDTAVYNCASAHAYAFYRYWYVPSEYNYWGQGTQVTVSS” stands “low polyreactivity”; under “QVQLVESGGGLVQAGGSLRLSCAASGRTIRYYSMGWYRQAPGKESELVAAINYSGGRTYYADSVKGRFTISRDNSMNTVYLQLNSLKPEDTAVYYCNAVLGPYFPKFDYWGQGTQVTVSS”, “high polyreactivity”; under “QDQLVESGGGLVQAGGSLRLSCAASGFIFIPNAMGWYRQAPRKERELVAAISFSDGTTYYADSVKGRFTISRDYEKNTVYLQMNSLKPEDTAVYYCAAEGYQSQYDYWGQGTQVTVSS”, “high polyreactivity”. As for “QVQLVESGGGLVQAGGSLRLSCAASGSTFSLNDMGWYRQAPGKERQLVAAITGRGTRTYYADSVKGRFTISRDNAKNNVYLQMNSLKPEDTAVYYCAIDYPRGSPYGYNYWVQGTQVTVSS”, the “polyreactivity (PSR sort gate)” value is listed as “high polyreactivity”. For “QVQLVESGGGLVQAGGSLRLTCAASGGISLYYVMGWYRQAPGKERELVADISGDDSTNYADSVKGRFTISRDNAKNTVYLQMNSLKPEDTAVYYCAAVPGLFYLPYDYWGQGTQVTVSS” the value was “low polyreactivity”. Under “QVQLVESGGGLVQAGGSLRLSGAASGFIFVRYAMGWYRQAPGKERELVAAITRRGGSTHYADSVKGRFTISRDNAKNTVYLQMNSLTPEDTAVYYCAAGRQYYYLDRFPRVQGDYWGQGTQVTVSS” stands “high polyreactivity”; under “QVQLVESGGRLVQAGGSLRLSCAASGSIINVNTMGWYRQAPGKERELVAAISSGGRTYYADSVKGRFTISRDNAKNTVYLQMNSLKPEDTAVYYCNTVLGVYDYDYWGQGTQVTVSS”, “low polyreactivity”.

Regarding “QVHLVESGGGLVQAGGSLRLSCAASGITFAWYAMGWYRQAPGKERELVAAISDRGGSTYYADSVKGRFTMSRDNAKNTVDLQMNSLKPEETAVYYCAADYRYYWRSGASSRMDYWGQGTQVTVSS”, the “polyreactivity (PSR sort gate)” value was “high polyreactivity”. For “QVQLVESGGGLVQAGCSLRLSCAASGSIVDPYAMGWYRQAPRKEREWVAAISGSGGSTYYADSVKGRFTISRDNAKNTVYLQMNSLKPVDTSVYYCAAADAWWGRRYKYYHWGQGTQVTVSS” the value was “low polyreactivity”. For “QVQLVESCGGLGQAGGSLRLSCSASGRIFGTYAKGLYRKAPGKERELLASISYSDGSTYADSVKGRFTISRDNAKNTVYLQMNSLKPEDTSVYYCAADVYYYAQSEDGYWGQGTQVTVSS” the value was “low polyreactivity”; for “QVQLVESGGGLVQAGGSLRLSCADSGRTFRFNTRGWYRQAPGKEWVLVASISSSGGRTYYADSVKGRFTISRDNAKNTLYLQMHSLKPEDTAVYYCAAAAGWGARTSTYCGYDYWGQGTQVTVST”, “high polyreactivity”; for “QVQLVESGGGLVQAGGSLRLSCAASGRTFRANTMGWYRLAPGKERELVAAISHSGGSTYYADSVKGRFTISRDNAKNTVYLQMNSLKPEDTAVYYCATDGGSYSWASPRVDYWGQGTQVTVSS”, “low polyreactivity”.
